Assay results: article PMC9898218 (Journal of materials chemistry. B, 2023)

Molecular target: the molecule itself
Test: SEC

B1: Cowpea chlorotic mottle virus (CCMV) coat protein (natural protein)
chain: MSTVGTGKLTRAQRRAAARKNKRNTRVVQPVIVEPIASGQGKAIKAWTGYSVSKWTASCAAAEAKVTSAITISLPNELSSERNKQLKVGRVLLWLGLLPSVSGTVKSCVTETQTTAAASFQVALAVADNSKDVVAAMYPEAFKGITLEQLTADLTIYLYSSAALTEGDVIVHLEVEHVRPTFDDSFTPVY
binding result: binds
